The source of these data is patent US20120077731A1 (Ablynx, published 2012).

Where “and” joins values, the source holds several entries; their conditions need not be identical. Equal entries are not always repeated.

For experiment [1], the target named is T1, Human plasma sIL-6R (human, UniProt P08887 20-355, limits assumed).
T1 construct: also called plasma-derived human IL-6R
T1 sequence (looked up): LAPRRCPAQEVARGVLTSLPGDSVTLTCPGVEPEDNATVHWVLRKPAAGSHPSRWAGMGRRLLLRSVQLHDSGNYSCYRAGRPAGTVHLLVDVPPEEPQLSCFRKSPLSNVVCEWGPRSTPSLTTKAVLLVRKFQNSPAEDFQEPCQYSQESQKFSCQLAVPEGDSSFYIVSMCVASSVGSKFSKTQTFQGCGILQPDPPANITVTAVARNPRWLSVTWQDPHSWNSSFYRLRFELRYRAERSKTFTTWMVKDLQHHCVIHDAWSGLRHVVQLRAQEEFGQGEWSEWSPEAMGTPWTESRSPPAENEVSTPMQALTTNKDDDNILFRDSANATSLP
Put plainly: plasma potency ELISA, human plasma, IL-6 at EC95 (885 ng/mL).

The target of experiment [2] is T2, Human soluble IL-6R (human, UniProt P08887 20-358).
T2 construct: Soluble recombinant form; biotinylated in some assays; also called hIL-6R; human IL-6R
T2 sequence (looked up): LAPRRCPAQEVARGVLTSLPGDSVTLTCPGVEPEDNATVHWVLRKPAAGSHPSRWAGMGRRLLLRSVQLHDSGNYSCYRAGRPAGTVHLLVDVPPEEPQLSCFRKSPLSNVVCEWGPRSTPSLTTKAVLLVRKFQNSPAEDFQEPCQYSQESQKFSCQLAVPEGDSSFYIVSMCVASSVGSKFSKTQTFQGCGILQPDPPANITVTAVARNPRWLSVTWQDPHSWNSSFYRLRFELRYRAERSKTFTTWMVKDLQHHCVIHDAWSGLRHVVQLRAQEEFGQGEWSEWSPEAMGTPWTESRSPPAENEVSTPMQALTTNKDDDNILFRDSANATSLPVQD
The experiment can be described thus: Alphascreen IL-6/IL-6R competition with purified Nanobody; row EC50 of the table, axis [inhibitor], M; blocked ligand IL-6.

The target in experiment [3] is T1, Human plasma sIL-6R. Put plainly: plasma potency assay, human plasma ([IL6R]: ~0.4 nM, [IL6]: 2.4 nM printed); sIL-6R captured on BN-12, bound IL-6 detected; blocked ligand IL-6.
For experiment [4], the target named is T2, Human soluble IL-6R. Put plainly: SPR Biacore 3000, human IL-6R amine-coupled to CM5.
Description: Remaining reactive groups were inactivated. Nanobody binding was assessed at various concentrations ranging from 0.5 to 50 nM. Each sample was injected for 4 min at a flow rate of 45 μl/min to allow for binding to chip-bound antigen. Next, binding buffer without Nanobody was sent over the chip at the same flow rate to allow for dissociation of bound Nanobody.
Experiment [5] concerns the target T1, Human plasma sIL-6R. Put plainly: plasma potency ELISA, human plasma + human IL-6 50 ng/mL; sIL-6R captured on BN-12, bound IL-6 detected; blocked ligand IL-6.
In experiment [6] the target is T3, Human membrane IL-6R on cells (human, UniProt P08887 20-468).
T3 sequence (looked up): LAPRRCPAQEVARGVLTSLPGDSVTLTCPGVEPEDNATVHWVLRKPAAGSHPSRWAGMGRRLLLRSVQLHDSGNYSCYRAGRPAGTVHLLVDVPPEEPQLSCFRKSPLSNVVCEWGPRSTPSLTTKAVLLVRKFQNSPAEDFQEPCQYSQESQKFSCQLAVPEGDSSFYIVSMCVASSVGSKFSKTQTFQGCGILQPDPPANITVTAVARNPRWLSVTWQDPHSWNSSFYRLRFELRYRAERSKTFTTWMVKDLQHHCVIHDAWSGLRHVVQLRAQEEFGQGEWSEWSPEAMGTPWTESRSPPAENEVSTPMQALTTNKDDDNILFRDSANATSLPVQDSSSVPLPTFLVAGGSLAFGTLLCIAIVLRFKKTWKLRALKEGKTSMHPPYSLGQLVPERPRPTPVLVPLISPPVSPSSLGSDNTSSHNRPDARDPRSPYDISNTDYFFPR
Put plainly: cell-based or functional assay.

The target of experiment [7] is T4, Cyno plasma sIL-6R (cynomolgus monkey, UniProt A0A2K5WN54 60-396).
T4 construct: also called cynomolgus sIL-6R
T4 sequence: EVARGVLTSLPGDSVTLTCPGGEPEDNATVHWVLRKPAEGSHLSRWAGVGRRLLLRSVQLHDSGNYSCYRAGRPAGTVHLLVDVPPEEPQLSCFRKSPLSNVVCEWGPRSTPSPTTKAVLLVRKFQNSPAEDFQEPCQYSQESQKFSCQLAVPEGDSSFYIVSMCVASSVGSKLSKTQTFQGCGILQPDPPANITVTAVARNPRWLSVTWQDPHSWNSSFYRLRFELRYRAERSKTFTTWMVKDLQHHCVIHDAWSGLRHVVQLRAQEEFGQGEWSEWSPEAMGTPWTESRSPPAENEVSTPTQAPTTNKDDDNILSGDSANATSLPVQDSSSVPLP
The experiment can be described thus: plasma potency ELISA, cyno plasma + human IL-6 50 ng/mL; sIL-6R captured on BN-12, bound IL-6 detected; blocked ligand IL-6.

Experiment [8] deals with T2, Human soluble IL-6R. The experiment can be described thus: Biacore T100.
Experiment [9] concerns the target T1, Human plasma sIL-6R. The experiment can be described thus: plasma potency assay, human plasma, 42 nM IL6; blocked ligand IL-6.
Description: (§1) All 5 affinity matured Nanobodies and the sequence optimized Nanobody were also tested in a plasma potency assay. […] TMB was used as substrate.
For experiment [10], the target named is T2, Human soluble IL-6R. Put plainly: Biacore T100, IL-6R covalently coupled.
For experiment [11], the target named is T1, Human plasma sIL-6R. Put plainly: plasma potency ELISA, human plasma, IL-6 at EC50 (50 ng/mL).
The target of experiment [12] is T2, Human soluble IL-6R. Put plainly: Biacore T100, IL-6R captured via mAb BN-12.
The target in experiment [13] is T1, Human plasma sIL-6R. Put plainly: plasma potency assay, human plasma, 42 nM IL6; sIL-6R captured on BN-12, bound IL-6 detected; blocked ligand IL-6.
The target in experiment [14] is T2, Human soluble IL-6R. Put plainly: SPR (Biacore), binding curves at several concentrations of purified Nanobody on IL-6R.
Another experiment addresses T5, Cyno IL-6R (cynomolgus monkey, UniProt A0A2K5WN54 60-396).
T5 construct: also called cynomolgus monkey IL-6R; recombinant cyno sIL-6R
T5 sequence: T4 sequence
Put plainly: SPR Biacore 3000, cyno IL-6R amine-coupled to CM5.

The target in experiment [15] is T4, Cyno plasma sIL-6R. The experiment can be described thus: plasma potency assay, cyno plasma ([IL6R]: ~0.4 nM, [IL6]: 2.4 nM printed); sIL-6R captured on BN-12, bound IL-6 detected; blocked ligand IL-6.
Experiment [16] has as its target T1, Human plasma sIL-6R. The experiment can be described thus: plasma potency assay, human plasma, 2.4 nM IL6; blocked ligand IL-6.
Description: as §1
For experiment [17], the target named is T4, Cyno plasma sIL-6R. The experiment can be described thus: plasma potency assay, cyno plasma, 2.4 nM IL6; blocked ligand IL-6.
Description: as §1
In experiment [18] the target is T3, Human membrane IL-6R on cells. Put plainly: cell-based or functional assay. This is another data set of the same source.
The target in experiment [19] is T1, Human plasma sIL-6R. The experiment can be described thus: plasma potency ELISA in human plasma at the EC95 of IL-6 (885 ng/mL); blocked ligand IL-6.
For experiment [20], the target named is T2, Human soluble IL-6R. Put plainly: Biacore, binding to IL-6R (parent value).
Experiment [21] deals with T2, Human soluble IL-6R. The experiment can be described thus: competition for IL-6R, competitor reference Fab, summary table C-13.
Experiment [22] addresses T1, Human plasma sIL-6R. The experiment can be described thus: plasma potency ELISA in human plasma at the EC50 of IL-6 (50 ng/mL); blocked ligand IL-6.
For experiment [23], the target named is T2, Human soluble IL-6R. The experiment can be described thus: Alphascreen IL-6/IL-6R competition (IL-6R 0.3 nM, bio-IL-6 3 nM); row EC50 of the fit table, axis [competitor], M; blocked ligand IL-6.
For experiment [24], the target named is T2, Human soluble IL-6R. Put plainly: Biacore off-rate, periplasmic extract.
The target in experiment [25] is T3, Human membrane IL-6R on cells. Put plainly: cell-based or functional assay. This is another data set of the same source.
Experiment [26] has as its target T2, Human soluble IL-6R. Put plainly: Alphascreen, 100 nM Nanobody, 0.4 nM bio-IL-6R; competitor: reference Fab.
Experiment [27] deals with T3, Human membrane IL-6R on cells. The experiment can be described thus: cell-based or functional assay. This is another data set of the same source.
For experiment [28], the target named is T2, Human soluble IL-6R. The experiment can be described thus: inhibition of the IL-6/IL-6R interaction, summary table C-13.
Description: (§2) Finally streptavidin donor beads were added and after 1 hour incubator the plate was read on the Envision microplate reader.
Experiment [29] concerns the target T2, Human soluble IL-6R. Put plainly: Alphascreen, inhibition of bio-IL-6 binding to IL-6R.
Description: as §2
The target in experiment [30] is T2, Human soluble IL-6R. The experiment can be described thus: SPR Biacore 3000, IL-6R amine-coupled to CM5.
Description: (§3) Nanobodies were injected at 5 different concentrations between 1 and 50 nM. Flow rate was 45 μl/min in all experiments. Association and dissociation phase were 3 and 10 min, respectively. The chip was regenerated using Glycine/HCl pH 1.5.
In experiment [31] the target is T2, Human soluble IL-6R. Put plainly: summary table C-13 of Nanobody characteristics, Kd on IL-6R.
Description: as §3
A further experiment concerns the target T6, Mouse IL-6R (mouse, UniProt P22272 20-364, limits assumed).
T6 construct: also called mouse sIL-6R
T6 sequence (looked up): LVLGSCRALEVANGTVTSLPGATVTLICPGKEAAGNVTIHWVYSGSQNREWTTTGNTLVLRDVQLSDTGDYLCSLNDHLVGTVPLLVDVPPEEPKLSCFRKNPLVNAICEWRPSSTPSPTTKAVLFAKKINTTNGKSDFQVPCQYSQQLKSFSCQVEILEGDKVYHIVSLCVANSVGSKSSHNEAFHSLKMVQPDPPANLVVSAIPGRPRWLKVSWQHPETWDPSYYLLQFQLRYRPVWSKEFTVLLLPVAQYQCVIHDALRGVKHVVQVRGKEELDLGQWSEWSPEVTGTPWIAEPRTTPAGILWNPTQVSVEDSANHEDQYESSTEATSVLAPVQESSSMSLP
The experiment can be described thus: ELISA: plate coated with 1 µg/ml mouse IL-6R, 500 nM Nanobody, anti-myc + anti-mouse-HRP.

Description for Cyno IL-6R: Remaining reactive groups were inactivated. […] Each sample was injected for 4 min at a flow rate of 45 μl/min to allow for binding to chip-bound antigen. Next, binding buffer without Nanobody was sent over the chip at the same flow rate to allow for dissociation of bound Nanobody.
Description for Mouse IL-6R: Detection was performed with anti-myc and anti-mouse-HRP as first and second antibody respectively.

B1: IL6R65 (VHH)
VHH: EVQLVESGGGLVQPGGSLRLSCAASGSIFKVNAMGWYRQAPGKGRELVAGIISGGSTNYADSVKGRFTISRDNAKNTLYLQMNSLRPEDTAVYYCAFVTTNSDYDLGRDYWGQGTLVTVSS
notes: also called ILR65; parent Nanobody
As to B1, the IC50 with Human plasma sIL-6R [1] was 66200 pM; with Human soluble IL-6R [2], 147 pM; with Human plasma sIL-6R [3], 4930 pM; with Human plasma sIL-6R [9], 24800 pM; with Human plasma sIL-6R [11] it was 2610 pM; in the experiment with Human plasma sIL-6R [13], 61500 pM. Moreover, the IC50 with Cyno plasma sIL-6R [15] was 2990 pM; with Human plasma sIL-6R [16], 1900 pM; with Cyno plasma sIL-6R [17] it was 900 pM. The Kd worked out at 4000 pM in the experiment with Human soluble IL-6R [4], 3800 pM with Human soluble IL-6R [8], 4300 pM with Human soluble IL-6R [14] and 12000 pM with Cyno IL-6R. Besides, the koff in the experiment with Human soluble IL-6R [4] came to 0.00235 s⁻¹; with Human soluble IL-6R [10] it was 0.0038 s⁻¹; with Cyno IL-6R, 0.00197 s⁻¹. In addition, the figures for the kon with Human soluble IL-6R [4], in the experiment with Human soluble IL-6R [12] and with Cyno IL-6R were 600000 M⁻¹ s⁻¹, 1e+06 M⁻¹ s⁻¹ and 165000 M⁻¹ s⁻¹, respectively. In addition, the “IC50 (read off the curve)” value with Human plasma sIL-6R [5] was ~700 pM; in the experiment with Cyno plasma sIL-6R [7], ~100 pM. In [6], the “IC50 values (nM), XG-1 assay” value was 26 nM.

B2: IL6R04 (VHH)
VHH: EVQLVESGGGLVQAGGSLRLSCAASGFTFDDYDIGWFRQAPGKEREGVSGISSSDGNTYYADSVKGRFTISSDNAKNTVYLQMNSLKPEDTAVYYCAAEPPDSSWYLDGSPEFFKYWGQGTQVTVSS
notes: also called PMP32C9; not shown: C-terminal c-myc and (His)6 tags
Regarding B2, the “IC50 (nM) XG-1” value in [18] is 0.1 nM. Further, the IC50 in the experiment with Human soluble IL-6R [2] turned out to be 56.8 pM; with Human soluble IL-6R [23], 180 pM; with Human soluble IL-6R [28], 90 pM; with Human soluble IL-6R [29] it was 93 pM. Also, the “IC50 (read off the curve)” value was ~400 pM with Human plasma sIL-6R [19] and ~200 pM in the experiment with Human plasma sIL-6R [22]. The Kd was determined as 300 pM in the experiment with Human soluble IL-6R [20], 171000 pM in the experiment with Cyno IL-6R, 300 pM with Human soluble IL-6R [30] and 300 pM in the experiment with Human soluble IL-6R [31]. The “IC50 values (nM), XG-1 assay” value in experiment [6] amounted to 0.1 nM. Besides, in the experiment with Human soluble IL-6R [21], the “Ref Fab competition (%)” value stood at 50%. Besides, the koff in the experiment with Human soluble IL-6R [24] was 0.00015 s⁻¹; with Cyno IL-6R, 0.01 s⁻¹; in the experiment with Human soluble IL-6R [30], 9.42e-05 s⁻¹ and 0.00015 s⁻¹. For the same molecule, the “IC50 (nM), TF1 cell proliferation” value in [25] stood at 0.4 nM. For the same molecule, the “Residual reference-Fab binding to IL-6R (%)” value with Human soluble IL-6R [26] amounted to 50%. For the same molecule, in [27], the “IC50 (nM) + HSA, XG-1 cell proliferation” value was 0.1 nM. For the same molecule, the “IC50 (nM), XG-1 cell proliferation” value in [27] was 0.1 nM. Also, the values for the kon with Cyno IL-6R and in the experiment with Human soluble IL-6R [30] were 58600 M⁻¹ s⁻¹ and 365000 M⁻¹ s⁻¹, respectively. The binding result with Mouse IL-6R is given as “no binding (tested: 500 nM)”.
